Patent publication US20230055566A1 (DIZAL JIANGSU PHARMACEUTICAL, published 2023)
One block for each binder: values may come before it.

Tests used:
[1] = biological target: T1, cyno FGFR2b-Fc (Cynomolgus monkey); experiment: ELISA, plate coated with cyno FGFR2b-Fc, anti-human IgG HRP
T1 construct: also called recombinant cyno FGFR2b-Fc; cynomolgus FGFR2b
Protocol: (§1) The cross-species binding of Ab 21c to recombinant cyno, rat/mouse, and human FGFR2b-Fc fusion proteins was conducted with ELISA. In brief, 96-well ELISA plate were coated with about 100 μl/well 0.1 μg/ml recombinant human FGFR2b-Fc, recombinant rat/mouse FGFR2b-Fc, or recombinant cyno FGFR2b-Fc protein in PBS overnight. Then the plate was blocked with 2% BSA in PBS with 0.05% Tween20 and incubation with antibody samples for 60 min at room temperature, and then washed twice in 1×TBST (Cell Signaling Technology, #9997) and followed by incubation with anti-human lgG HRP (Horseradish peroxidase) conjugate for 60 min at a room temperature. HRP activity was detected with tetra-methylbenzidine substrate (Cell Signaling Technology, #7004) and the reaction was stopped with stop solution (Cell Signaling Technology, #7002). The plate was read at 450 nm. […] Ab 21c has the highest binding affinity to rat/mouse FGFR2b, followed by human FGFR2b, and then cyno FGFR2b.

[2] = biological target: T2, recombinant rat/mouse FGFR2b-Fc (rat); experiment: ELISA, plate coated with rat/mouse FGFR2b-Fc, anti-human IgG HRP
T2 construct: also called rat FGFR2b fused with murine Fc
Protocol: as §1

[3] = biological target: T3, recombinant human FGFR1b-Fc (human, UniProt P11362-19 22-376); experiment: SPR (Biacore T200), hFGFR1b-Fc amine-coupled on CM5 chip, antibody as analyte
T3 construct: Bought from R&D Systems; also called hFGFR1b-Fc; not shown: human Fc
T3 sequence (looked up): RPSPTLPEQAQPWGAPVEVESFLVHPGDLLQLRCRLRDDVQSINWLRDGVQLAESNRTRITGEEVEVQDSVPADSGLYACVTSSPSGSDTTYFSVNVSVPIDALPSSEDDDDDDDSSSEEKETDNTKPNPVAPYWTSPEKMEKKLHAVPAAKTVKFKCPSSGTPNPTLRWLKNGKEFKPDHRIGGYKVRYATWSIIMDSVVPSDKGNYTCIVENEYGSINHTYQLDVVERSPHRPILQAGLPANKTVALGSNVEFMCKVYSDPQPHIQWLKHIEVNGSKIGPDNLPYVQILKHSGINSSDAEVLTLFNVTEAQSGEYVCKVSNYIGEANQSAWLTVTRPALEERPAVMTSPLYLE
Protocol: (§2) The binding of antibodies to human FGFR2b or human FGFR1b antigen was determined by surface plasmon resonance (Biacore). Briefly, CM5 sensor chip (GE Healthcare Life Sciences) was firstly activated by a 4 min injection of 1:1 freshly mixture of 50 mM N-hydroxysuccinamide (NHS): 200 mM […]. Then hFGFR2b-Fc or hFGFR1b-Fc was immobilized to activated CM5 sensor chip using Amine Coupling Kit (GE Healthcare Life Sciences) and 1M ethanolamine as the blocking reagent. About 20-30 response units (RU, 1 RU represents the binding of 1 pg of protein per square mm) of antigen protein were captured.
(§3) The association constant, dissociation constant were calculated with Biacore T200 evaluation software (version 1.0). […] In addition, Ab 21c is distinguished from the antibody FPA144 in terms of FGFR1b binding.

[4] = biological target: T3, recombinant human FGFR1b-Fc; experiment: SPR (Biacore), hFGFR1b-Fc immobilized on CM5 chip, antibody injected at 0-200 nM
Protocol: as §2, §3

[5] = biological target: T4, FGFR4-Fc (human, UniProt P22455 22-369); experiment: ELISA, plate coated with HuFGFR4
T4 construct: Bought from R&D Systems; not shown: human Fc
T4 sequence (looked up): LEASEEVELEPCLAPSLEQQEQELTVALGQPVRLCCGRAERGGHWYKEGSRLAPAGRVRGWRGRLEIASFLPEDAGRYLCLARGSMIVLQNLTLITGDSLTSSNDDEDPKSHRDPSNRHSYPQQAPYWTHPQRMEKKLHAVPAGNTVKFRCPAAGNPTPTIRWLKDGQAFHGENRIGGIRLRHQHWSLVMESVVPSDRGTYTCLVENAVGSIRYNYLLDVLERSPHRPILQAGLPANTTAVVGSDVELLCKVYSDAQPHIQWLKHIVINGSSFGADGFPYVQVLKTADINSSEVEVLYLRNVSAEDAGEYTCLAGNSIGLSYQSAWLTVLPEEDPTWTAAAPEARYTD

[6] = biological target: T5, FGFR3b-Fc (human, UniProt P22607-2 23-377); experiment: ELISA, plate coated with HuFGFR3b
T5 construct: Bought from R&D Systems; the IIIb form is an isoform of it; not shown: human Fc
T5 sequence (looked up): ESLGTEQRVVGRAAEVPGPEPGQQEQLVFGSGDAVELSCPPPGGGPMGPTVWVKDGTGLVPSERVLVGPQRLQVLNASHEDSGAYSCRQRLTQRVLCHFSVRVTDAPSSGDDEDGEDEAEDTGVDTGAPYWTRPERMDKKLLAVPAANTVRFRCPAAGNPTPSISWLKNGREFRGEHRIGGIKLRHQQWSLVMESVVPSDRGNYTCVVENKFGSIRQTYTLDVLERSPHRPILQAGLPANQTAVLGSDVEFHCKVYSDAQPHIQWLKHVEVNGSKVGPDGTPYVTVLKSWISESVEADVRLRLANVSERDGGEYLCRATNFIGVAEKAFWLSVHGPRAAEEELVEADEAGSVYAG

[7] = biological target: T5, FGFR3b-Fc; experiment: ELISA on FGFR family Fc fusion proteins
[8] = biological target: T4, FGFR4-Fc; experiment: ELISA on FGFR family Fc fusion proteins

EC50 (read off the curve) [1]: ~600 pM
EC50 (read off the curve) [2]: ~200 pM
Kd [3]: 3690 pM
koff [4]: 0.000235 s⁻¹
kon [4]: 63800 M⁻¹ s⁻¹
B1: Ab 21c (antibody, V domains shown)
VH: EVQLHQSGTVLARPGASVKMSCKTSGYTFTNYWMHWIKQRPGQGLEWIGAIYPENGDINYNQKFKGKAKLTAVTSASTAYMDLSSLTNEDSAVYYCTSRGDYWGQGTTLTVSS
VL: QIVLTQSPAIMSASPGEKVTMTCSASSGLSYMSWYQQKPGSSPRLLIYDTSNLASGVPVRFSGSGSGTSYSLTISRMEAEDAATYYCQQWSSYPYTFGGGTKLEIK
notes: Chimeric antibody: mouse VH and VL fused to human heavy and light chain constant regions; also called chimeric Ab 21c

B2: Ab 21 (antibody, V domains shown)
VH: EVQLHQSGTVLARPGASVKMSCKTSGYTFTNYWMHWIKQRPGQGLEWIGAIYPENGDINYNQKFKGKAKLTAVTSASTAYMDLSSLTNEDSAVYYCTSRGDYWGQGTTLTVSS
VL: QIVLTQSPAIMSASPGEKVTMTCSASSGLSYMSWYQQKPGSSPRLLIYDTSNLASGVPVRFSGSGSGTSYSLTISRMEAEDAATYYCQQWSSYPYTFGGGTKLEIK
notes: Mouse monoclonal antibody from a hybridoma; also called mouse Ab 21
binding result [5]: no binding (tested: about 10^-7.3 M (about 5e-8 M))
binding result [6]: no binding (tested: about 10^-7.3 M (about 5e-8 M))

binding result [7]: no binding
binding result [8]: no binding
B3: Ab hu21-21 (antibody, V domains shown)
VH: EVQLVQSGAEVKKPGASVKVSCKASGYTFTNYWMHWVRQAPGQGLEWMGAIYPENGDINYNQKFKGRVTLTRDTSISTAYMELSRLRSDDTAVYYCTSRGDYWGQGTTVTVSS
VL: AIQLTQSPSSLSASVGDRVTITCSASSGLSYMSWYQQKPGKAPKLLIYDTSNLASGVPSRFSGSGSGTDFTLTISSLQPEDFATYYCQQWSSYPYTFGQGTKLEIK
notes: Humanized antibody based on Ab 21

binding result [7]: no binding
binding result [8]: no binding
B4: Ab hu21-26 (antibody, human IgG1, V domains shown)
VH: EVQLVQSGAEVKKPGASVKVSCKASGYTFTNYWMHWVRQAPGQGLEWMGAIYPENRDINYNQKFKGRVTLTRDTSISTAYMELSRLRSDDTAVYYCTSRGDYWGQGTTVTVSS
VL: AIQLTQSPSSLSASVGDRVTITCSASSGLSYMSWYQQKPGKAPKLLIYDTSNLASGVPSRFSGSGSGTDFTLTISSLQPEDFATYYCQQWSSYPYTFGQGTKLEIK
notes: Humanized antibody with human IgG1; The VH equals that of hu21-21 except for G56R; also called afhu21-26 (afucosylated version)
